Values belong to the molecule of their own block, whether it stands above or below them. No end group written: not given here. *: point of attachment. Biotin = O=C1N[C@H]2[C@H](CS[C@H]2CCCCC(=O)*)N1
Columns and labels:
[1] = tested on: E13 chick DRG neurons; assay: cDRG neurite outgrowth assay; format: cell-based
Method: FIG. 2D. Differential effects of Amino-Nogo fragments on neurite outgrowth. Dissociated neurons from E13 chick DRGs were plated on 96 well dishes coated with lpmol protein per well and stained for neurofilament localization.
FIG. 2E. Neurite length per neuron were measured and plotted as percentage of PBS control with increasing concentration of dried protein for experiment described in […].
FIG. 6C. B24/32 peptide inhibits neurite outgrowth. Dissociated neurons from E13 chick DRG were plated onto 96 well dishes coated with 500 pmol of dried peptides as indicated and stained for neurofilament localization.
FIG. 6D. Neurite length per neuron was measured and plotted as percentage of PBS control for experiments as in (C).
It has been recognized that the Amino-Nogo-A protein inhibits non-neuronal cell spreading and axonal outgrowth when the protein is substrate bound (Chen, M. S., et al., Nature 403:434-439 (2000); Fournier, A. E., et al., Nature 409:341-346 (2001)). […] The later domain has been termed Δ20. To determine whether the NgR-interacting aa of Amino-Nogo-A described in Example 1 regulate cell spreading and axonal outgrowth, various fragments were expressed as GST fusion proteins and purified from E. coli. To generate GST fusion proteins, amino Nogo fragments were cloned in pGEX2T (Amersham Pharmacia). Native and soluble GST fusion proteins were expressed and purified as described (GrandPre, T., et al., Nature 403:439-444 (2000)). COS-7 binding assays were done as described (Fournier, A. E., et al., Nature 409:341-346 (2001)). Bound AP to COS-7 cells was measured using NIH image software. Fibroblast spreading and cDRG outgrowth assay were done as described (Fournier, A. E., et al., Nature 409:341-346 (2001)) with some modifications. Briefly, 50 μl of purified GST fusion protein or peptides diluted in PBS was pipetted into polylysine precoated 96 well plates (Becton Dickson Biocoat plates) and dried overnight at room temperature. For fibroblast spreading assay, subconfluent COS-7 cells were then plated for 1 hour in serum containing medium before fixation and staining with rho damine-phalloidin.
The same GST-Amino-Nogo proteins were tested for their ability to reduce neurite outgrowth from chick E13 DRG neurons. For cDRG outgrowth assay, dissociated E13 cDRG neurons were plated for 6 hours before fixation. […] Cell area, number of attached cells and neurite length were measured using the Imageexpress machine and software (Axon Instrument).
We reasoned that fusing the 24 aa segment of Amino-Nogo-A to NEP32 antagonist peptide might create a high affinity antagonist with a potency similar to the binding of AP-B4C-66 to NgR. […] Cell area, number of attached cells and neurite length were measured using the linageexpress machine and software (Axon Instrument).

[2] = target: T1, NgR expressed on COS-7 cells (species not stated); assay: AP fusion on NgR-expressing COS-7 cells
T1 chain: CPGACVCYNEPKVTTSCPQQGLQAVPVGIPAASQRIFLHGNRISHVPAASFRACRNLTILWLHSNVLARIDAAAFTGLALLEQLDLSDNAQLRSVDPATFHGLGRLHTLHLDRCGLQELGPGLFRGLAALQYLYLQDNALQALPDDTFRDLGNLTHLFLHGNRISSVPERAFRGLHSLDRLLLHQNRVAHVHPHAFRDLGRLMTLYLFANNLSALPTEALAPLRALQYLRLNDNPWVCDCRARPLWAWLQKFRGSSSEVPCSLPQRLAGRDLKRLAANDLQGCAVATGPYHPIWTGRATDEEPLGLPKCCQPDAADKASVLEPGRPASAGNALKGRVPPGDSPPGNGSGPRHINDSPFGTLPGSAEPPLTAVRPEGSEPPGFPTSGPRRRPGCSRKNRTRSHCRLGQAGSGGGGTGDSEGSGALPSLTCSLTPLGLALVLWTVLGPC
Description: Several alkaline phosphatase (AP) fusion proteins containing various Nogo-A segments derived from regions between the amino terminus and the first hydrophobic segment were examined to identify the mechanism of Amino-Nogo-A action. To generate additional AP fusion proteins, human amino Nogo fragments were amplified and ligated to the pcAP6 vector digested with restriction enzymes EcoRI and XhoI as described (Fournier, A. E., et al., Nature 409:341-346 (2001)). Plasmids were then transfected into HEK293T cells and conditioned media were collected after 7 days. None of these fragments bind with high affinity to non-transfected COS-7 cells. […] This binding is saturable with a Kd indistinguishable from that for AP-Nogo-66 association with NgR (Table I). To better define the region responsible for Amino-Nogo interaction with NgR, a range of truncation mutants of Amino-Nogo were examined as AP fusion proteins.
Binding Kds for AP fused Amino-Nogo fragments were measured by applying conditioned media containing AP fusion protein to NgR expressing COS-7 cells. Bound AP was stained and measured.

[3] = tested on: NgR ligands; assay: Binding of alanine substituted NgR mutants to NgR ligands, summary categories; conditions: AP-Nogo66, AP-B4C, AP-B4C66, AP-Lingo-1, AP-OMgp and AP-MAG; compared to wild type NgR
How it was run: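 AP-fused ligands (Nogo66, B4C, B4C66, Lingo-1, OMgp, MAG) were assayed against 74 Ala-substitution mutants of human NgR1 targeting surface charged patches, glycosylation sites and predicted binding regions, plus the D259N variant. Outcomes were grouped into categories: binding lost for all ligands, retained for all, or ligand-selective.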

[4] = target: T2, AP fusion protein with the B4C fragment of Amino-Nogo-A fused directly to Nogo-66 (human, UniProt Q9NQC3 1055-1120); assay: AP-ligand binding, COS-7
T2 construct: domain: Nogo-66; also called AP-B4C66; AP-B4C-66; not shown: alkaline phosphatase (AP), vector pcAP6
T2 sequence: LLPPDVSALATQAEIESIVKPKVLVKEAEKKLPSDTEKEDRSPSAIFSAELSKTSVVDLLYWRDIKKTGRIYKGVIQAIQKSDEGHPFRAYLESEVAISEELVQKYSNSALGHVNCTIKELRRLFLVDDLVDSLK

[5] = target: T3, AP-fused Amino-Nogo fragment B4C (a.a. 950-1018) (human, UniProt Q9NQC3 950-1018); assay: AP-ligand binding, COS-7
T3 construct: also called AmNg B4C; AP-B4C; not shown: alkaline phosphatase (AP), vector pcAP6
T3 sequence: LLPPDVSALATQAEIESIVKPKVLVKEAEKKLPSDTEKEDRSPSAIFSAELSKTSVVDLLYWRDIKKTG

[6] = target: T4, AP-Nogo-66 (UniProt Q9NQC3 1055-1120); assay: AP-ligand binding, COS-7
T4 construct: domain: Nogo-66; construct described elsewhere (Fournier 2001); also called AP-Ng66; Ng66; not shown: alkaline phosphatase (AP); construct described elsewhere
T4 sequence (looked up): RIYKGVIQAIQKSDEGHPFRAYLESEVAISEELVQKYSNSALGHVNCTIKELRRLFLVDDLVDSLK

Molecule: Biotin-IFSAELSKTSVVDLLYWRDIKKTG [carboxyl 24 aa segment of Amino-Nogo-A]
effect on Nogo-66 action on neurite outgrowth ([1]; biotinylated peptide, FIGS. 6C and 6D): does not block or enhance Nogo-66 action on neurite outgrowth

Molecule: biotin-IFSAELSKTSVVDLLYWRDIKKTGGRIYKGVIQAIQKSDEGHP FRAYLESEVAISEE [24-32 fusion peptide]
axon outgrowth from DRG neurons ([1]; 500 pmol of dried biotinylated peptide per well): potently inhibited axon outgrowth

Kd [2]: 26.6 nM
B1: AP-fused Amino-Nogo fragment a.a. 996-1018 (ligand)
chain: FSAELSKTSVVDLLYWRDIKKTG
modifications: also: alkaline phosphatase (AP) fusion
notes: not shown: alkaline phosphatase (AP), vector pcAP6

Kd [2]: 2.43 nM
B2: AP-Amino-Nogo-A-24 (a.a. 995-1018) (ligand)
chain: IFSAELSKTSVVDLLYWRDIKKTG
modifications: also: alkaline phosphatase (AP) fusion
notes: also called Amino-Nogo-24; not shown: alkaline phosphatase (AP), vector pcAP6

Kd [2]: 4.55 nM
B3: AP-fused Amino-Nogo fragment a.a. 995-1015 (ligand)
chain: IFSAELSKTSVVDLLYWRDIK
modifications: also: alkaline phosphatase (AP) fusion
notes: as for B1

Kd [2]: 2.69 nM
B4: AP-fused Amino-Nogo fragment a.a. 971-1018 (ligand)
chain: KVLVKEAEKKLPSDTEKEDRSPSAIFSAELSKTSVVDLLYWRDIKKTG
modifications: also: alkaline phosphatase (AP) fusion
notes: as for B1

Kd [2]: 2.48 nM
B5: AP-fused Amino-Nogo-A-19 (a.a. 995-1013) (ligand)
chain: IFSAELSKTSVVDLLYWRD
modifications: also: alkaline phosphatase (AP) fusion
notes: also called Ng19; not shown: alkaline phosphatase (AP), vector pcAP6

ligand binding category of NgR mutant (Table II) [3]: No binding
binding result [4]: no binding
binding result [5]: no binding
binding result [6]: no binding
B6: human NgR1 alanine mutant 182, 186, 158, 160 (receptor)
chain: CPGACVCYNEPKVTTSCPQQGLQAVPVGIPAASQRIFLHGNRISHVPAASFRACRNLTILWLHSNVLARIDAAAFTGLALLEQLDLSDNAQLRSVDPATFHGLGRLHTLHLDRCGLQELGPGLFRGLAALQALALQDNALQALPDDTFRDLGNLTALFLAGNRISSVPERAFRGLHSLDRLLLHQNRVAHVHPHAFRDLGRLMTLYLFANNLSALPTEALAPLRALQYLRLNDNPWVCDCRARPLWAWLQKFRGSSSEVPCSLPQRLAGRDLKRLAANDLQGCAVATGPYHPIWTGRATDEEPLGLPKCCQPDAADKASVLEPGRPASAGNALKGRVPPGDSPPGNGSGPRHINDSPFGTLPGSAEPPLTAVRPEGSEPPGFPTSGPRRRPGCSRKNRTRSHCRLGQAGSGGGGTGDSEGSGALPSLTCSLTPLGLALVLWTVLGPC

ligand binding category of NgR mutant (Table II) [3]: No binding
binding result [4]: no binding
binding result [5]: no binding
binding result [6]: no binding
B7: human NgR1 alanine mutant 111, 113, 114, 138 (receptor)
chain: CPGACVCYNEPKVTTSCPQQGLQAVPVGIPAASQRIFLHGNRISHVPAASFRACRNLTILWLHSNVLARIDAAAFTGLALLEQLALAANAQLRSVDPATFHGLGRLHTLHLARCGLQELGPGLFRGLAALQYLYLQDNALQALPDDTFRDLGNLTHLFLHGNRISSVPERAFRGLHSLDRLLLHQNRVAHVHPHAFRDLGRLMTLYLFANNLSALPTEALAPLRALQYLRLNDNPWVCDCRARPLWAWLQKFRGSSSEVPCSLPQRLAGRDLKRLAANDLQGCAVATGPYHPIWTGRATDEEPLGLPKCCQPDAADKASVLEPGRPASAGNALKGRVPPGDSPPGNGSGPRHINDSPFGTLPGSAEPPLTAVRPEGSEPPGFPTSGPRRRPGCSRKNRTRSHCRLGQAGSGGGGTGDSEGSGALPSLTCSLTPLGLALVLWTVLGPC

Kd [2]: 3.19 nM
B8: AP-fused Amino-Nogo fragment a.a. 995-1014 (ligand)
chain: IFSAELSKTSVVDLLYWRDI
modifications: also: alkaline phosphatase (AP) fusion
notes: as for B1

Reference: patent publication US20090111753A1, “Nogo-A Polypeptide Fragments, Variant Nogo Receptor-1 Polypeptides, and Uses Thereof” (Yale University, priority 2004, published 2009)
